Source: US20210388087A1 (Chugai, published 2021)

B1: H183/L072 VL R29W (antibody, name in Kabat numbering, V domains shown)
VH: QVQLVESGGGLVQPGRSLRLSCAASGFTFSNAWMHWVRQAPGKGLEWVAQIKDKGNAYAAYYAPSVKGRFTISRDDSKNSIYLQMNSLKTEDTAVYYCHYVHYASASTVLPAFGVDAWGQGTTVTVSS
VL: DIVMTQSPLSLPVTPGEPASISCQASQELVHMNWNTYLHWYQQKPGQAPRLLIYKVSNRFPGVPDRFSGSGSGTDFTLKISRVEAEDVGVYYCAQGTSVPFTFGQGTKLEIK
notes: Dual-Ig
B2: H183/L072 VL R54A (antibody, name in Kabat numbering, V domains shown)
VH: QVQLVESGGGLVQPGRSLRLSCAASGFTFSNAWMHWVRQAPGKGLEWVAQIKDKGNAYAAYYAPSVKGRFTISRDDSKNSIYLQMNSLKTEDTAVYYCHYVHYASASTVLPAFGVDAWGQGTTVTVSS
VL: DIVMTQSPLSLPVTPGEPASISCQASQELVHMNRNTYLHWYQQKPGQAPRLLIYKVSNAFPGVPDRFSGSGSGTDFTLKISRVEAEDVGVYYCAQGTSVPFTFGQGTKLEIK
notes: Dual-Ig
B3: H183/L072 VL R54G (antibody, name in Kabat numbering, V domains shown)
VH: QVQLVESGGGLVQPGRSLRLSCAASGFTFSNAWMHWVRQAPGKGLEWVAQIKDKGNAYAAYYAPSVKGRFTISRDDSKNSIYLQMNSLKTEDTAVYYCHYVHYASASTVLPAFGVDAWGQGTTVTVSS
VL: DIVMTQSPLSLPVTPGEPASISCQASQELVHMNRNTYLHWYQQKPGQAPRLLIYKVSNGFPGVPDRFSGSGSGTDFTLKISRVEAEDVGVYYCAQGTSVPFTFGQGTKLEIK
notes: Dual-Ig
B4: H183/L072 VL R54E (antibody, name in Kabat numbering, V domains shown)
VH: QVQLVESGGGLVQPGRSLRLSCAASGFTFSNAWMHWVRQAPGKGLEWVAQIKDKGNAYAAYYAPSVKGRFTISRDDSKNSIYLQMNSLKTEDTAVYYCHYVHYASASTVLPAFGVDAWGQGTTVTVSS
VL: DIVMTQSPLSLPVTPGEPASISCQASQELVHMNRNTYLHWYQQKPGQAPRLLIYKVSNEFPGVPDRFSGSGSGTDFTLKISRVEAEDVGVYYCAQGTSVPFTFGQGTKLEIK
notes: Dual-Ig
B5: H183/L072 VL R54F (antibody, name in Kabat numbering, V domains shown)
VH: QVQLVESGGGLVQPGRSLRLSCAASGFTFSNAWMHWVRQAPGKGLEWVAQIKDKGNAYAAYYAPSVKGRFTISRDDSKNSIYLQMNSLKTEDTAVYYCHYVHYASASTVLPAFGVDAWGQGTTVTVSS
VL: DIVMTQSPLSLPVTPGEPASISCQASQELVHMNRNTYLHWYQQKPGQAPRLLIYKVSNFFPGVPDRFSGSGSGTDFTLKISRVEAEDVGVYYCAQGTSVPFTFGQGTKLEIK
notes: Dual-Ig
B6: H183/L072 VL R54D (antibody, name in Kabat numbering, V domains shown)
VH: QVQLVESGGGLVQPGRSLRLSCAASGFTFSNAWMHWVRQAPGKGLEWVAQIKDKGNAYAAYYAPSVKGRFTISRDDSKNSIYLQMNSLKTEDTAVYYCHYVHYASASTVLPAFGVDAWGQGTTVTVSS
VL: DIVMTQSPLSLPVTPGEPASISCQASQELVHMNRNTYLHWYQQKPGQAPRLLIYKVSNDFPGVPDRFSGSGSGTDFTLKISRVEAEDVGVYYCAQGTSVPFTFGQGTKLEIK
notes: Dual-Ig
B7: H183/L072 VL R54H (antibody, name in Kabat numbering, V domains shown)
VH: QVQLVESGGGLVQPGRSLRLSCAASGFTFSNAWMHWVRQAPGKGLEWVAQIKDKGNAYAAYYAPSVKGRFTISRDDSKNSIYLQMNSLKTEDTAVYYCHYVHYASASTVLPAFGVDAWGQGTTVTVSS
VL: DIVMTQSPLSLPVTPGEPASISCQASQELVHMNRNTYLHWYQQKPGQAPRLLIYKVSNHFPGVPDRFSGSGSGTDFTLKISRVEAEDVGVYYCAQGTSVPFTFGQGTKLEIK
notes: Dual-Ig
B8: H183/L072 VL R29Y (antibody, name in Kabat numbering, V domains shown)
VH: QVQLVESGGGLVQPGRSLRLSCAASGFTFSNAWMHWVRQAPGKGLEWVAQIKDKGNAYAAYYAPSVKGRFTISRDDSKNSIYLQMNSLKTEDTAVYYCHYVHYASASTVLPAFGVDAWGQGTTVTVSS
VL: DIVMTQSPLSLPVTPGEPASISCQASQELVHMNYNTYLHWYQQKPGQAPRLLIYKVSNRFPGVPDRFSGSGSGTDFTLKISRVEAEDVGVYYCAQGTSVPFTFGQGTKLEIK
notes: Dual-Ig

What follows are binders tested against T1, Human CD137 ECD (human) (assay: Biacore SPR, vs parent H183/L072).
T1 construct: entry includes C-terminal His-tag and biotin acceptor peptide; also called human CD137 extracellular domain; 4-1BB
T1 sequence (chain, as listed by the source limits assumed): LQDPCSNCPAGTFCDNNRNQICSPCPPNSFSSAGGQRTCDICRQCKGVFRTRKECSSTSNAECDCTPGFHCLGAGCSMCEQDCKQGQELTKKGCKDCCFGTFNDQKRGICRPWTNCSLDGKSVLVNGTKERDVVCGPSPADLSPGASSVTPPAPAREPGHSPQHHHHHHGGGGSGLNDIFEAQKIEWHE
B1 was tested, and the “fold change of affinity” value was 0.6 fold. With B2 the “fold change of affinity” value was 0.9 fold. In the case of B3, the “fold change of affinity” value is reported as 0.9 fold. With B4 the “fold change of affinity” value was 0.6 fold. For B5, the “fold change of affinity” value was 0.3 fold. For B6, the “fold change of affinity” value was 0.3 fold. In the case of B7, the “fold change of affinity” value is reported as 0.6 fold. B8 was tested, and the “fold change of affinity” value was 0.6 fold.
